Measured values from article PMC4669970 (Biochemical pharmacology, 2015).
Where two headings read alike, the source gives them in different places. No end group written: not given here.

What was measured:
human BChE = human BChE (Homo sapiens, UniProt P06276); experiment: Inhibition of BChE-catalysed ghrelin hydrolysis by BChE-specific inhibitors; format: biochemical; details: parallel assays, modest concentrations of inhibitor
[1] = humans; cited from earlier work
[2] = rats; cited from earlier work
[3] = Tissue distribution of [^3H]-ghrelin after i.v. bolus in DFP-pretreated mice; details: as E30

Chain of human BChE (P06276 29-602): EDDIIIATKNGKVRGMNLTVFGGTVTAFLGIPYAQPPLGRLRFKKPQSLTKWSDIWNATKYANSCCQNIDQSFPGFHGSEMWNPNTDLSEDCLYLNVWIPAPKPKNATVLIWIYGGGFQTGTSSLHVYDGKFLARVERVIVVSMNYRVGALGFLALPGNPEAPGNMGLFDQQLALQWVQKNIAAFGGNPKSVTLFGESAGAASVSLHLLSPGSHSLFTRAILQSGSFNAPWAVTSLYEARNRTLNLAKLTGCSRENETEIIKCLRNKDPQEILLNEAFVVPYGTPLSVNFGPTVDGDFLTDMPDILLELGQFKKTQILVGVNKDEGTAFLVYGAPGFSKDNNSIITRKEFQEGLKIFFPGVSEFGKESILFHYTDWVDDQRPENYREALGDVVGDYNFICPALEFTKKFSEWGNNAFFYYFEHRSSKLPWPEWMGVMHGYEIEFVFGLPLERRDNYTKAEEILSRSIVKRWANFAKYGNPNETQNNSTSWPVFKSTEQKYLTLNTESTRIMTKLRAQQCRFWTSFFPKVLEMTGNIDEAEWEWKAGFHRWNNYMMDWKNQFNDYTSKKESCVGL

Row | Compound | effect on BChE ghrelin hydrolysis reactions (human BChE) | circulating half-life [1] | circulating half-life [2] | time of peak concentration in liver [3] | time of peak concentration in pancreas [3] | time of peak concentration in spleen [3]
1 | CCN(CC)C(C)CN1c2ccccc2Sc2ccccc21 (stereo not drawn) [ethopropazine] | stopped those reactions completely | – | – | – | – | –
2 | ghrelin (GSS((3H)n‑octanoyl)FLSPEHQRVQQRKESKKPPAKLQPR; also: tritium label on the octanoyl group (tracer form); UniProt Q9UBU3 24-51, looked up) | – | 8 to 13 min | 8 min | 6 min | 12 min | 12 min
